Assay results published in US20060039913A1 (Janssen / Centocor, published 2006).
Where “and” joins values, the source holds several entries; their conditions need not be identical. Equal values may be shown once. Blank lines part the entries; values can stand above or below the molecule they belong to.

How the values were obtained:
[1] = target: chemokine receptor CCR2 on THP-1 cells (human) (UniProt P41597); experiment: radioligand saturation binding of 125I MCP-1 to THP-1 cells (CCR2), specific bound cpm, one site binding (hyperbola) fit
[2] = target: chemokine receptor CCR2 on THP-1 cells (human) (UniProt P41597); experiment: radioligand saturation binding on THP-1 cells, one-site binding hyperbola fit; molar conversion with 150 kDa
[3] = target: chemokine receptor CCR2 on THP-1 cells (human) (UniProt P41597); experiment: radioligand saturation binding on THP-1 cells, one-site binding hyperbola fit; mass concentration as fitted
[4] = target: T1, recombinant human MCP-1 (monocyte chemoattractant protein 1) (human, UniProt P13500 24-99); experiment: BIAcore, C775 captured on anti-Fc surface, MCP-1 in solution, 25 C
T1 construct: Bought recombinant protein (RDI-304 for the EIA; R&D Systems 279-MC for the other assays); also called rHuMCP-1; cold MCP-1
T1 sequence (P13500 24-99 limits assumed): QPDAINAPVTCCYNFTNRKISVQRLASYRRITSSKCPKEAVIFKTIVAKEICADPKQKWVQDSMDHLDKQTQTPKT
Source text: (§1) Anti-MCP-1 monoclonal antibodies were captured onto a BIAcore CM5 sensor surface (Biacore International, Piscataway, N.J.). A solution containing a mixture of rabbit anti-human Fc specific polyclonal antibodies and rabbit anti-mouse Fc specific polyclonal antibodies was first immobilized onto the sensor surface. After the restabilization of the new baseline, the anti-MCP-1 mAb is passed over the surface.
(§2) Human MCP-1 purchased from R&D Systems (www.rndsystems.com) was reconstituted as proscribed by the vendor. Samples of varying concentrations were prepared using this stock solution. They were then passed over the surface of captured anti-MCP-1 mAb using KINJECT command at a flow rate of […]. Measurements are typically performed at 25° C. Sensor data was analyzed using the BLAevaluation software provided with the instrument.

[5] = target: T1, recombinant human MCP-1 (monocyte …); experiment: cell-based or functional assay
[6] = target: T2, 125I labeled human MCP-1 (NEX332, Perkin Elmer) (human, UniProt P13500 24-99, 125I label, residue not stated); experiment: inhibition of 125I MCP-1 (1 ng/ml) binding to CCR2 on THP-1 cells, filter plate radioligand assay
T2 construct: Bought radio-iodinated MCP-1; also called radiolabeled MCP-1
T2 sequence (P13500 24-99 limits assumed): as above
Method: Negative controls (no inhibition) or total binding was measured in 50 ul of assay buffer with no other additions. Nonspecific binding (background) was measured by adding 50 ul of MCP-1 at a final concentration of […]. Test wells received 50 ul of serial dilutions of mAb. Lastly, 50 ul of ¹²⁵I MCP-1 at a final concentration of 1 ng/ml was added to all wells resulting in a total assay volume of […].
To test the efficacy of anti-MCP-1 mabs, a concentration of 1 ng/ml ¹²⁵I MCP-1 was used. Cells were incubated with 1 ng/ml ¹²⁵I MCP-1 with or without serial dilutions of either the commercial Mab (positive control) or 6 different Mabs generated in Example 2. There is a dose-dependent inhibition of ¹²⁵I MCP-1 binding to the CCR2 receptor with the commercial Mab. A dose-dependent inhibition was also observed with five of the six Centocor-generated Mabs allowing the calculation of an IC50 concentration: C727, C728, C752, C753 and, C775.

human MCP-2 = target: T3, human MCP-2 (human, UniProt P80075 24-99); experiment: BIAcore, C775 captured on anti-Fc surface, single ligand concentration
T3 sequence (looked up): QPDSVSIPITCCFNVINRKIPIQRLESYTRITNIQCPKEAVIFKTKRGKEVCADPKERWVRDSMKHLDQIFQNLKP
Source text: as §1, §2
(§3) Analysis is performed as described above, with the exception only a single concentration is used, typically, a high ligand concentration (100 nM). Chemokines selected for mAb specificity were human forms of MCP-1, MCP-2, Eotaxin-1, Eotaxin-2 (CCL24, MPIF-2, NP_{—}002982) and Eotaxin-3 (CCL26, GenBank Q9Y258). All chemokines were purchased from R&D Systems. Dextran-sulfate (1%) was added to the sample buffer in the final round of assays to reduce non-specific binding, particularly to eotaxin-3.

human Eotaxin-3 (CCL26) = target: T4, human Eotaxin-3 (CCL26) (human, UniProt Q9Y258 24-94); experiment: as above
T4 sequence (looked up): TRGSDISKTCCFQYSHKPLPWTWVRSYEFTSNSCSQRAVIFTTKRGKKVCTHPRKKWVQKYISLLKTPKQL
Source text: as §1, §2, §3

[7] = target: T5, human Eotaxin-2 (CCL24, MPIF-2) (human, UniProt O00175 27-104, limits assumed); experiment: as above
T5 sequence (looked up): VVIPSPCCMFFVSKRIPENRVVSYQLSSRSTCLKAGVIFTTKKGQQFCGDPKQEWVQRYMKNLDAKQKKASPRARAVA
Source text: as §1, §2, §3

[8] = target: T1, recombinant human MCP-1 (monocyte …); experiment: BIAcore, ratio of binding constants, reference eotaxin
Method: as §1, §3
The data for binding of C775 to each of the ligand described was processed to give a binding constant, where measurable. There was no measurable binding of C775 to any of the other MCP-1 homologs or eotaxin homologs. The calculated binding constant of C775 to MCP-1 by this method was 1.0 nM and for eotaxin >5 uM, respectively, for a ligand concentration 100 nM. Therefore, the binding specificity of C775 for MCP-1 as compared to eotaxin is >5000 fold. […]

BMAX [1]: 15700 cpm
Kd [2]: 1 nM
Kd [3]: 0.00896 µg/mL
Molecule: 125I labeled human MCP-1 (NEX332, Perkin Elmer) (from UniProt P13500 24-99) (ligand)

Kd [4]: 1 nM
IC50 (nM), Ca2+ mobilization in THP-1 cells with 300 ng/ml MCP-1 [5]: 53 nM
IC50 (µg/ml), Ca2+ mobilization in THP-1 cells with 300 ng/ml MCP-1 [5]: 8.01 µg/mL
IC50 [6]: 7.1 µg/mL and 47 nM
binding result (human MCP-2): no binding (tested: 100 nM ligand)
binding result (human Eotaxin-3 (CCL26)): no binding (tested: 100 nM ligand)
binding result [7]: no binding (tested: 100 nM ligand)
binding specificity for MCP-1 as compared to eotaxin (fold) [8]: > 5000 fold
B1: murine anti-human MCP-1 monoclonal antibody C775 (antibody, mouse IgG1, V domains shown)
VH: QVQLKQSGAELVRPGASVKLSCKASGYTFTDYYINWVKQRPGQGLEWIARIYPGTGNTYYNENFKGKATLTAEKSSSTAYMQLSSLTSEDSAVYFCARSGSTVVGNYYGMDYWGQGTSVTVSS
VL: SIVMTQTPKFLLVSAGDRVSITCKASQSVSNDVAWYQQKPGQSPKLLIYYASNRYTGVPDRFTGSGYGTDFTFTISTVQAEDLAVYFCQQDYSSPWTFGGGTKLEIKR
notes: also called CNTO4874; CNTO 4874
